Results taken from article PMC6082870 (2018).

How the values were obtained:
Assay in all cases: SPR
[1] = target: T1, human lysyl hydroxylase 3 (LH3/PLOD3), wild type (human, UniProt O60568 25-738, N-linked glycosylations at Asn63 and Asn548)
T1 chain: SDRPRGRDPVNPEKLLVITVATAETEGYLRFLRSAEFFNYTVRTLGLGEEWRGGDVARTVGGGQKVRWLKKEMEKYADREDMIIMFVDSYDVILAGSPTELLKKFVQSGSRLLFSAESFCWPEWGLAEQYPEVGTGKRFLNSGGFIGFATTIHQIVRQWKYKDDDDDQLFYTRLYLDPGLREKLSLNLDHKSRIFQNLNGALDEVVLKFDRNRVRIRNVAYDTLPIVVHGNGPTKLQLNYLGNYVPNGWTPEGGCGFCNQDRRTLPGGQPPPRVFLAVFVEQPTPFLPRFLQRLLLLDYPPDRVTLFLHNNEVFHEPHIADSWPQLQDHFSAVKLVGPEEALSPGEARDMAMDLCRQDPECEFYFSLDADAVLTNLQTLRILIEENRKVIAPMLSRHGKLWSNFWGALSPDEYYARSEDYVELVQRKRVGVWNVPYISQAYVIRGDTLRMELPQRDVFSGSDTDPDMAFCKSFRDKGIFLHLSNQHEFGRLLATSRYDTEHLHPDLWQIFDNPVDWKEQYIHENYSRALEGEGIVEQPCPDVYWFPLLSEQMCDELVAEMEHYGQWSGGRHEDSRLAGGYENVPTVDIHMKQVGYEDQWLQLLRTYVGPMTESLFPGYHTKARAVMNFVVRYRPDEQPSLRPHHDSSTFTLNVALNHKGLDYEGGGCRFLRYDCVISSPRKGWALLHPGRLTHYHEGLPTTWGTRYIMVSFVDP

[2] = target: LH3 Y114A mutant (human, UniProt O60568 25-738, Y114A)
Chain of LH3 Y114A mutant (O60568 25-738 Y114A): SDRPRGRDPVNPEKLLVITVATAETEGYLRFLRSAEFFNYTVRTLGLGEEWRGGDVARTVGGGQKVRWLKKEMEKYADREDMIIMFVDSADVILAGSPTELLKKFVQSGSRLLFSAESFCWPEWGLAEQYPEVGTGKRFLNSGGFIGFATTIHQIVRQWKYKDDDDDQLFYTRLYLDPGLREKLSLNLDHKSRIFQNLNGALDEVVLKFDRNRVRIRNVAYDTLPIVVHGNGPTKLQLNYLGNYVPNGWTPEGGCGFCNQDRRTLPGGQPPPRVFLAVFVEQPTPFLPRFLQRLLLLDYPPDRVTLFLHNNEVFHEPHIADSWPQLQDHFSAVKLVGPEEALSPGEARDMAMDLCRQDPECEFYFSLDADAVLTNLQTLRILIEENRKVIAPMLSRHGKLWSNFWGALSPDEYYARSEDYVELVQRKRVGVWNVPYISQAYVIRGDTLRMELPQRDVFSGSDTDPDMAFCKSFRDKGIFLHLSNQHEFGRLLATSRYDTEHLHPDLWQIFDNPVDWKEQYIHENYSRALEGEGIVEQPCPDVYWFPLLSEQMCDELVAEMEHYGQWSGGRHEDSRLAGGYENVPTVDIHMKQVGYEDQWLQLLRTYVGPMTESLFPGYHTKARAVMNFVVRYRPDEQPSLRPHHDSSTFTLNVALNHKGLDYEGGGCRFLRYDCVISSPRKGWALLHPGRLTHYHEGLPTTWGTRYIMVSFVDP

[3] = target: LH3 W75A mutant (human, UniProt O60568 25-738, W75A)
Chain of LH3 W75A mutant (O60568 25-738 W75A): as the sequence (O60568 25-738 Y114A) above, with W51A, A90Y counted along it

| Binder | Kd [1] [mM] | Kd [2] [mM] | Kd [3] [mM] |
| --- | --- | --- | --- |
| GIKGIKGIKGIK | 2.4 |  |  |
| IKGIKGIKG | 6.7 |  |  |
| ARGIKGIRGFS | 4.4 | 6.3 | 4.7 |
